Experimental data from the nanobody polyreactivity screen of Harvey et al. (2022).

Assay: yeast display, Sf9 membrane polyspecificity reagent, FACS + sequencing; frameworks hold sequencing errors
Procedure, shortened: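 After 36–48 hours of galactose induction, yeast (Saccharomyces cerevisiae BJ5465) displaying a synthetic nanobody library were stained at 4 °C for 1 hour with 10% biotinylated, detergent-solubilized Sf9 membrane reagent. Streptavidin microbeads enriched the stained cells before FACS sorting into low and high (top ~1%) gates on anti-HA and streptavidin fluorescence. Each clone's polyreactivity label reflects its gate of origin.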

Sequence | polyreactivity (PSR sort gate)
QVQLVESGGGLVQAGGSLRLSCAASGSTFYSYAMGWYRQAPGKERELVAAITSRGDRTYYADSVKGRFTISRDNAKNTVYLQMNSLKPEDTAVYYCAAEQSWQGYAYYYWGQGTQVTVSS | high polyreactivity
QVQLVESGGGLVQAGGSLRLSCAASGSTFASHVMGWYRQAPGKERELVAAITRGDRTHYADSVKGRFTISRDNAKNTVYLQMNSLKPEDTAVYYCAKVTTLGRSRDYWGQGTQVTVSS | low polyreactivity
QVQLVESGGGLVQAGGSLRLSCAASGSTFIYNAMGWYRQAPGKERELVAAITDGSTKYADSVKGRFTISRDNAKNTVYLQMNSLKPEDTAVYYCNAYVWRWRYDSWGQGTQVTVSS | low polyreactivity
QVQLVESGGGLVQAGGSLRLSCAASGGTFIVYAMGWYRQAPGKERELVAAITYSGGSTYYADSVKGRFTISRDNAKNTVYLQMNSLKPEVTAVYYCAARPFVSSWLQYAEGGDYWGQGTQVTVSS | low polyreactivity
QVQLVESGGGLVQAGGSLRLSCAASGRIFWRNTMGWYRQAPGKERELVAAITRTGGSTYYADSVKGRFTISRDNAKNTVYLQMNSLKPEDTAVYYCAAQQHYGDGYWGQGTQVTVSS | high polyreactivity
QVQLVESCGGLVQAGGSLRLSFAASGSTFGYYTMGWYRQAPGKERELVAAISWSGGSTYYADSVKGRFTISRDNAKNTVYLQMNSLKPEDTAVYFCAALGYTYKYYSYYWGQGTQVTVSS | high polyreactivity
QVQLVESGGGLVQAGGSLRLSCAASGSTFARYAMGWYRQAPGKERELFAVITWTGGSTYYADSVKGRFTISRDNAKNTVYLQMNSLKPEDTAVYYCAADFRYYVTALKYDYWGQGTQVTVSS | low polyreactivity
QVQIVESGGGLVQAGGSLRLICAASGRIFRYYVMGWYRQAPGKERELVATITSGGSTNYADSVKGRFTISRDNAKNTVYLQMNSLKPEDTAVYYCNRDRYPYYYAYNFWGQGTQVTVSS | low polyreactivity
QVQLVESGGGLVQAGGSLRLSCAASGRIFNWYAMGWYRQEPGKERELVAAISTDGSTYYADSVKGRFTISRDNAKNTVYLQMNSLKPEDTAVYYCAAVPGYTHLWGGPFDYWGQGTQVTVSS | low polyreactivity
QVQLVESGGGLVQAGGSLRLSSAASGSTSFQNAMGWYRQATGKEREFVAAISGSGDRTNYADSVKGRFTISRDNAMYTVYVQMNSLKPEDTAVYYCAAVRGYPPSNYYYWGQGTQVTVSS | high polyreactivity
QVQLVESGGGLVQAGGSLRLSCAASGSIFKYNAMGWYRKAPGKERELVAAISWSGASTSYADSVKGRFTISRDNAKNTVYLQMNSLKPEDTAVYYCNAYYWYYSTRKYYYWGQGTKVTVSS | high polyreactivity
QVQLVESGGGLVQAGGSLRLSCAASGSIFDYNAKGWYRPAPGKERELVASISGDSGSTYYADSVKGRFTISRDNAKNTVYLQMNSLKPEDTAVYYCAAPYVSWDYRYYYWGQGTQVTVSS | low polyreactivity
QVQLVESGGGLVQAGGSLRLSCAASGRIVSHYAMGWYRQAPGKERELVAAISRSGSTYYADSVKGRFTISRDNAKNTVYLQMNSLKPEDTAVYYCATRLYTVGPYGYWGQGTQVTVSS | low polyreactivity
QVQLVESGGGLVQAGGSLRLSCAASGRIFGGNADMGWDRQAPGKERELVAVIDWSGGSTYYADSVKGRFTISRDNAKNTVYFQMHSLKPEDTAVYYCNADAPRSSGDYGQGDYWGQGTQVTVSS | high polyreactivity
QVQLVESGGGLVQAGGSLRLSCAASGSIFGFNAMGWYRQAPGKERELVAAITNSGVRTYYADSVKGRFTISRDNAKNTVYLQMNSLKPEDTAVYYCAAEPDTYWYTYDYWGQGTQVTVSS | low polyreactivity
QVQLVESGGGLVQAGGSLRLSCAASGSIFSSYAMGWYRQAPGKERELVAAITGRDGSTYYADSVKGRFTISRDNAKNTVYLQMNILKPEDTAVYYCAASRFYFPRTFGGYPKLASYDYWGQGTQVTVSS | low polyreactivity
QVQLVESGGGLVQAGCSLRLSCAASGRIFVAITMGRYRQAPGKERELVAAITRGTNTYYADSVKGRFTISRDNAKNTVDLQMNSLKPEDSAVYYCAARLPYNAIGYYYWGHGTQVTVSS | low polyreactivity
QVQLVESGGGLVQAGGSLRLSCAASGRTFASYAMGWYRQAPVKERELVARISKSGGSTYYADSVKGRFTISRDNAKNTVYLQMNSLKPEDTAVYYCAATRYPYLYRSEVGSDYWGQGTQVNVSS | low polyreactivity
QVQLVESGGGLVQAGGSLRLSCAASGSIFGAYAMGWYRQAPGKERELVASITGNGGSTYYADSVKGRFTISRDNAKNTVYLQMNSLKPEDTAVYDCAADDYSTRYRWFYYGSPYYYWGQGTQVTVSS | high polyreactivity
QVQLVESGGGLVQAGGSLRLICAASGRIYRYYAMGWYRQAPGKERELVAAITSDGRTYYADSVKGRFTISRDNAKNTVYLQMNSLKPEDTAVYYCAADHHSYRYGGYYYWGQGTQVTVSS | low polyreactivity
QVQLVESGGGLVQAGGSLRLSCAASGYNFSIYAMGWYRQAPGKERELVAAIRSDARTYYADSVKGRFTISRDNAKNTVYLQMNSLKPEDTAVYYCAADQYSYAANRPFYRGYYWGQGTQVTVSS | high polyreactivity
QDQLVESGGGLVQAGGSLRLSCAASGSIFGYNDMGWYRQAPGKERELVATITWGGGRTRYADSVKGRFTSSRDNAKNTVYLHMNSLKPEVTAVYYCAADVLRISTLLFRGPGFDSWGQGTQVTVSS | low polyreactivity
QVQLVESGGGLVQAGGSLRLSCSASGFILSYYARGWYRQSPGKERELVAAISRAGSTNYADSVKGRFTISRDNAKNTVYLQMNSLKPEDTAVYYCNKRQYSARVSRSYDYWGQGTQVTVSS | high polyreactivity
QVKLVESAGGLVQAGASLRLSCAPSGITFKRYAMGWSSQQPGKQSELVAAITSGGSTHYADSVKGRFTISRDNAKNTVYLQMNTLKPEDTAVYYCATRRYKWGVRYDYWGQGTQVTVSS | high polyreactivity
QVQLVESGGGLVQAGGSLRLSCAASGRTFADHTMGWYRQAPGKERELVARINSGSSTYYADSVKGRFTISRDNAKNTVYLQMNSLKPEDTAVYYCAARGSDYIRWYVGGRYGYWGQGTQVTVSS | low polyreactivity
QVHLVESGGGLVQAGGSLRLSCAASGYTFGYYTMGWYRQAPGKERELFASIDSGGGTNYADSVKGRFTISRDNAKNTVFLQMNSLKPEETAVYYCAVDSYQTGVYFYYVYWDFDLGYWGQVTQVTVSS | low polyreactivity
QVQLVESGGGLVQAGGSLRLSCAASGITFKAYAMGWYRQAPGKERELVAAITGSGGRTYYADSVKGRFTISRDNAKNTVYLQMNSLKPEDTAVYYCAKTSSWYLRPKYYYWGQGTQVTVSS | high polyreactivity
QVQVVESGGGLVQAGGSLRLSCAASGFTFSFYAMGWYRQAPGKERELVAAISSGGTTSYADSVKGRFTISRDYAKNTVYLQMNSLKPEDTAVYYCATDVYYYRTGAYTSTKPYDYWGQGTQVTVSS | low polyreactivity
QVQLVESGGGLVQAGGSLRLSCAASGFTFRYYAMGWYRPAPGKERELVAAISSRGGSTYYADSVKGRFTISRDNAKNTVYLQINSLKPEDTAVYYCAVVRWRHYIFATYDYWGQGTQVTVSS | high polyreactivity
QVQLVESGGGLVQAGRTLRLSCAASGFTFYYNAMGWYRQAPGKERELVATITGSTYYADSVKGLFTISRDNATYSVYLQMNSLKPEDTAVYYCTADASLVLAEYDYWGQGTQVTVSS | low polyreactivity
